Patent US20140106371A1

Columns and labels:
[1] = target: asialotransferrin (human) (UniProt P02787); assay: qualitative ELLA, lectin 2 µg/mL
[2] = target: Gal-α1,3-Gal-BSA glycoconjugate (UniProt P02769); assay: ELLA lectin dose response
Chain of Gal-α1,3-Gal-BSA glycoconjugate (P02769 25-607 limits assumed): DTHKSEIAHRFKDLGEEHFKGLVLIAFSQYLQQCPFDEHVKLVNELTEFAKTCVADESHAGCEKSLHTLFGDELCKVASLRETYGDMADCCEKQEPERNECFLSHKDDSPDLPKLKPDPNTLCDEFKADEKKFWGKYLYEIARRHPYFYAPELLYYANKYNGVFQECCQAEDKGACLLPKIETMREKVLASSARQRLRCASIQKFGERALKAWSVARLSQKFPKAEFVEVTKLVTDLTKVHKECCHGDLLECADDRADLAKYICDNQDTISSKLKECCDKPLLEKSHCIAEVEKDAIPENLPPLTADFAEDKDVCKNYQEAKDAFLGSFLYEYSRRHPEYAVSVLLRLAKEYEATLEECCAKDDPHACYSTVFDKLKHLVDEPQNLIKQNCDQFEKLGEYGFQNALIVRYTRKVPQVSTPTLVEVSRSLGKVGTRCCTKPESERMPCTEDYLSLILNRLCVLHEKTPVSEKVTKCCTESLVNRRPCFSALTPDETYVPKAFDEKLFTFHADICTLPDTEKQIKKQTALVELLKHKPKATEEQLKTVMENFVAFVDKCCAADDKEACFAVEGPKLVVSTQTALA

Chain of asialotransferrin (human) (P02787 20-698 limits assumed): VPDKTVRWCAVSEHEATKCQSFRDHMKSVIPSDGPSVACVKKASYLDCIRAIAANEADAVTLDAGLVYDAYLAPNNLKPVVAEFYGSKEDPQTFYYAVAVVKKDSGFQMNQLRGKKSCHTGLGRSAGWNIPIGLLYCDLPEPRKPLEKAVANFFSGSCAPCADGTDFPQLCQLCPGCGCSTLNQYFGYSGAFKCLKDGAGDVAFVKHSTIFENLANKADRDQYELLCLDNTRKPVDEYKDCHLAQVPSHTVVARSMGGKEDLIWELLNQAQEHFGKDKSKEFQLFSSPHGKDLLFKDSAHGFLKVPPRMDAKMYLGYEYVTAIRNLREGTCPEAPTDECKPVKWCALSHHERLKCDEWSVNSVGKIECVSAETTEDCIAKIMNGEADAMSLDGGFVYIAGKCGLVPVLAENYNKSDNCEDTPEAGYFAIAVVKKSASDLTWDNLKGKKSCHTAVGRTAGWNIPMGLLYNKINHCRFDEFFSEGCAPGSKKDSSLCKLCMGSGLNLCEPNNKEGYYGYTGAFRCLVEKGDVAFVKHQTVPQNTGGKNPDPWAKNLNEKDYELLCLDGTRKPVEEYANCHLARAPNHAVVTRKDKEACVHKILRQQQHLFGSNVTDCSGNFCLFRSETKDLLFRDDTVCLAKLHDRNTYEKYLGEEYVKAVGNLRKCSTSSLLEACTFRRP

Substance	ELLA signal relative to rPA-ILNmE6 [1]	lectin concentration at which the ELLA signal reached saturation [2]
H50N (rPA-ILNm protein) (from UniProt Q05097 1-122)	0.5 fold	
H50N:Q53G (from UniProt Q05097 1-122)	< 0.5 fold	
rPA-ILN (recombinant wild type PA-IL with an N-terminal RGS-6HIS affinity tag) (from UniProt Q05097 1-122)		> 1.25 µg/mL
